Data taken from US11766480B2, “Multivalent peptoid oligomers, pharmaceutical compositions and methods of using same” (NEW YORK UNIVERSITY, priority 2012, dated 2023).
“Also recorded” adds a separate entry of the source.

How the values were obtained:
[1] = system: HEK293 cells; test: Cell toxicity assay (CyQUANT cell viability), HEK293; type: cell-based, human; details: 1 μM, 72 hours
Protocol: (§1) To evaluate the general cell toxicity of oligomers 6 and 7, a cell viability assay was utilized.
(§2) HEK293 and PC3 cells were seeded in triplicate on 96-well plates (Corning) in DMEM and HAM'S—F media supplemented with 10% FBS, 1% L-Gln and 1% PS, respectively. HEK293 and PC3 cells were then treated with conjugates (1 μM and 20 μM, respectively) and allowed to incubate at 37° C. for 72 hours. Following treatment, relative cell viability was measured using the CyQUANT reagent according to the manufacturer's instructions. Fluorescence intensity was quantified as described above. All data were processed using GraphPad Prism.

[2] = system: PC3 cells; test: Cell toxicity assay (CyQUANT cell viability), PC3; type: cell-based; details: 20 μM, 72 hours
Protocol: as §1, §2

[3] = system: LNCaP-abl cells; test: Cell-cycle distribution by FACS / flow cytometry; type: cell-based, human; details: 1 μM, 48 h
Protocol: LNCaP-abl cells were grown on 10 cm culture dishes (BD Falcon) to approximately 70% confluence in RPMI media supplemented with 10% charcoal-stripped FBS, 1% L-Gln, and 1% PS. Cells were then treated with conjugate 1 or 2 to a final concentration of 1 μM and allowed to incubate at 37° C. for 48 h. Following treatment, cells were fixed and suspended in 2 mL of 1:3 HBSS:Phosphate-Citrate Buffer (pH 8.0) containing 0.1% Triton X-100. Cells were centrifuged (2,000 rpm for 5 min) and suspended in 1 mL of propidium-iodide solution (1 mg propidium iodine, 10 mg EDTA, 250 μL Igepal, and 2.2 μg μL-1 RNAase in 50 mL of PBS). Cells were then harvested for cell-cycle analysis by filtration (CellTrics, 100 μm) into conical tubes (Falcon) and analyzed by flow cytometry (Becton-Dickinson FACScalibur). All data were analyzed using FlowJo software.
The inventors analyzed cell-cycle distribution of LNCaP-abl cells treated with either oligomer 6 or 7 utilizing fluorescence-activated cell sorting (FACS) analysis. These studies provide a quantitative assessment of normal and apoptotic nuclei along with cell distribution in the G0/G1, S, and G2/M phases of the cell-cycle.

[4] = target: T1, AR (Homo sapiens, UniProt P10275, T878A); test: Chromatin immunoprecipitation of AR at the PSA enhancer in LNCaP-abl cells; type: cell-based; details: R-1881 10 nM alone, positive control
T1 construct: endogenous in cells; host or cells: LNCaP-abl
T1 sequence (P10275 1-920 T878A): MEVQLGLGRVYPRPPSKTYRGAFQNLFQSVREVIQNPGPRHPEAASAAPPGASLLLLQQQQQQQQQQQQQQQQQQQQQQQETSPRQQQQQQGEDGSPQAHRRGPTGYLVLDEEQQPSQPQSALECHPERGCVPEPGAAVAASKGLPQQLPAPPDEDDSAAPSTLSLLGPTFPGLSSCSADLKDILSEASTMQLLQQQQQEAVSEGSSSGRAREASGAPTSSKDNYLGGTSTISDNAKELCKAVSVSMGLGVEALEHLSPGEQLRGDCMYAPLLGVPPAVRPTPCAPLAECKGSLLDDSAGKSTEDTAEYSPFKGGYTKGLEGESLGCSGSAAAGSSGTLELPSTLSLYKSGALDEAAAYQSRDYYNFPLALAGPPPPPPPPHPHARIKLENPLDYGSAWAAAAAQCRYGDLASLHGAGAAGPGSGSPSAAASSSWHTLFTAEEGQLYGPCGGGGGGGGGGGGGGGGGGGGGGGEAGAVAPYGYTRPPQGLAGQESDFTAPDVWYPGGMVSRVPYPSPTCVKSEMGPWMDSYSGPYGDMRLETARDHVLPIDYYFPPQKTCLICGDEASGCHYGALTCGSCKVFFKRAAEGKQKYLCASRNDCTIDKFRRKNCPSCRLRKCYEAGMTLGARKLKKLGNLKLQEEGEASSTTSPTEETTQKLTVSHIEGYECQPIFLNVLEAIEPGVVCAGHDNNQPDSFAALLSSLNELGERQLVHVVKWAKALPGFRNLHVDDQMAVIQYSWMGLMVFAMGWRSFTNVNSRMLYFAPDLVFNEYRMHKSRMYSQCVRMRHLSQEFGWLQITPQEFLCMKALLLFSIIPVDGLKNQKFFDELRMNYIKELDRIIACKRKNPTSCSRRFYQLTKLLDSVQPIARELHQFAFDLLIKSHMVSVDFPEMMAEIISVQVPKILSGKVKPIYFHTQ
Protocol: Following treatment, proteins were double cross-linked with DSP (Pierce) for 20 min and 1% formalin for 10 min. Cells were lysed, and nuclei were collected, lysed in buffer (1% SDS, 50 mM Tris-HCl (pH 8.0), 10 mM EDTA), and sonicated for 12 min (30 s on, 30 s off) utilizing a Bioruptor sonicator (Diagenode, model XL). Sonicated lysates were precleared for 2 h with Protein A/G agarose beads blocked with salmon sperm DNA (Millipore). […] Control ChIP was concurrently performed with the same quantity of normal mouse and rabbit IgG sera. Immunocomplexes were then washed and cross-linking was reversed. DNA was isolated with a PCR purification kit (Qiagen) according to the manufacturer's instructions, and real-time PCR was performed. Relative enrichment of indicated genomic locus was calculated as a percentage of 4% input normalized to IgG. All data were processed using GraphPad Prism.

SMILES	cytotoxic effects in HEK293 cells [1]	cytotoxic effects in AR-deficient PC3 cells [2]	apoptotic cell population [3]	AR recruitment to the PSA enhancer [4]
COCCN(CC(N)=O)C(=O)CN(CCOC)C(=O)CN(CCCn1cc([C@]2(O)CCC3C4CCC5=CC(=O)CC[C@]5(C)C4CC[C@@]32C)nn1)C(=O)CN(CCOC)C(=O)CN(CCOC)C(=O)CN(CCOC)C(=O)CN(CCOC)C(=O)CN(CCOC)C(=O)CN(CCOC)C(=O)CN(CCOC)C(=O)CN(CCOC)C(=O)CNCCCn1cc([C@]2(O)CCC3C4CCC5=CC(=O)CC[C@]5(C)C4CC[C@@]32C)nn1 (stereo partly shown) [Oligomer 6]	did not exhibit cytotoxic effects; also recorded: cytotoxicity was not observed	did not exhibit cytotoxic effects; also recorded: cytotoxicity was not observed	no increase in the apoptotic cell population	–
COCCN1CC(=O)N(CCCn2cc([C@]3(O)CCC4C5CCC6=CC(=O)CC[C@]6(C)C5CC[C@@]43C)nn2)CC(=O)N(CCOC)CC(=O)N(CCOC)CC(=O)N(CCCn2cc([C@]3(O)CCC4C5CCC6=CC(=O)CC[C@]6(C)C5CC[C@@]43C)nn2)CC(=O)N(CCOC)CC1=O (stereo partly shown) [Oligomer 7]	did not exhibit cytotoxic effects; also recorded: cytotoxicity was not observed	did not exhibit cytotoxic effects; also recorded: cytotoxicity was not observed	no increase in the apoptotic cell population	–
C[C@]1(O)CC[C@H]2[C@@H]3CCC4=CC(=O)CCC4=C3C=C[C@@]21C [Oligomer R-1881]	–	–	–	promoted AR recruitment
